Data set [1] deals with T1, Z-L-tyrosine-L-lysine-L-arginine-p-nitroanilide.
T1 chain: YKR

Data set [2] has as its target fusion protein (peptide portion)-(Lys-Arg)-(h-GH), P01241.

Usually KM stands for the concentration of substrate that gives half-maximal velocity. Broadly, the kcat is the maximal rate divided by the concentration of active sites.

Sequence of fusion protein (peptide portion)-(Lys-Arg)-(h-GH), P01241 (P01241 whole entry, looked up, the tested form may be a part): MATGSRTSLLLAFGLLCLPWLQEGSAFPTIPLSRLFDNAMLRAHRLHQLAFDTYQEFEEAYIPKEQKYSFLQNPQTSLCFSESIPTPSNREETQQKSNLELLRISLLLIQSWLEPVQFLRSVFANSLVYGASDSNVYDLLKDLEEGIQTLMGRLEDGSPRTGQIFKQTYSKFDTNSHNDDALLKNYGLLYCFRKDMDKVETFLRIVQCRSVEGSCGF

B1: ss-Kex2-C613 (soluble secreted Kex2 endoprotease of Saccharomyces cerevisiae truncated at amino acid 613) (protein)
chain: APPMDSSLLPVKEAEDKLSINDPLFERQWHLVNPSFPGSDINVLDLWYNNITGAGVVAAIVDDGLDYENEDLKDNFCAEGSWDFNDNTNLPKPRLSDDYHGTRCAGEIAAKKGNNFCGVGVGYNAKISGIRILSGDITTEDEAASLIYGLDVNDIYSCSWGPADDGRHLQGPSDLVKKALVKGVTEGRDSKGAIYVFASGNGGTRGDNCNYDGYTNSIYSITIGAIDHKDLHPPYSEGCSAVMAVTYSSGSGEYIHSSDINGRCSNSHGGTSAAAPLAAGVYTLLLEANPNLTWRDVQYLSILSAVGLEKNADGDWRDSAMGKKYSHRYGFGKIDAHKLIEMSKTWENVNAQTWFYLPTLYVSQSTNSTEETLESVITISEKSLQDANFKRIEHVTVTVDIDTEIRGTTTVDLISPAGIISNLGVVRPRDVSSEGFKDWTFMSVAHWGENGVGDWKIKVKTTENGHRIDFHSWRLKLFGESIDSSKTETFVFGNDKEEVE
Take B1: in data set [1], the KM was found to be 56.8 µM, the kcat came to 2280 s⁻¹ and the kcat/KM (µM^-1 × min^-1) was 12400.

B2: ss-Kex1-C600 (soluble secreted Kex1 endoprotease of Kluyveromyces lactis truncated at amino acid 600) (protein)
chain: LPIGDSSMEQIQNARILFNISDPLFDQQWHLINPNYPGNDVNVTGLWKENITGYGVVAALVDDGLDYENEDLKDNFCVEGSWDFNDNNPLPKPRLKDDYHGTRCAGEIAAFRNDICGVGVAYNSKVSGIRILSGQITAEDEAASLIYGLDVNDIYSCSWGPSDDGKTMQAPDTLVKKAIIKGVTEGRDAKGALYVFASGNGGMFGDSCNFDGYTNSIFSITVGAIDWKGLHPPYSESCSAVMVVTYSSGSGNYIKTTDLDEKCSNTHGGTSAAAPLAAGIYTLVLEANPNLTWRDVQYLSILSSEEINPHDGKWQDTAMGKRYSHTYGFGKLDAYNIVHMAKSWINVNPQGWLYLPTIVEKQSISNSDEVIESTVSVSAEEFKQNNLKRLEHVTVTVDIDAPYRGHVLVDLISPDGVTSTLATARRLDKNRYGFQNWTFMSVAHWGSSGVGSWKLKVKSTHDNEIVTLKSWRLKMFGETIDAKKAKVISYGNDKEDAE
B2: in data set [1], the KM was 61.4 µM, the catalytic constant (kcat) worked out at 3070 s⁻¹, the kcat/KM (µM^-1 × min^-1) turned out to be 3000 and the specific activity entry is reported as “a specific activity of approximately 100 U/mg”. Further, in data set [2], the “reaction yield of hydrolysis (RP-HPLC)” value was “a reaction yield higher than 95%” and the “specificity of the hydrolysis (NH2-terminal sequence of the reaction product)” value is given as “gave the expected sequence for h-GH”.

These data come from patent publication US20030186258.
